First the molecules themselves.
B1: SCNN1D (parent)
chain: FYRLYQDLETHRLPCTSRCPRPCR
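Note: lentivirally expressed fusions sorted by FACS into six bins by GFP to DsRed ratio, PSI derived from sequencing read proportions per bin multiplied by bin number.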

Variants of B1 are the subject of this data set. The experiment in a line: protein stability index of a GFP-peptide fusion (GPS, HEK-293T) (PSI 1-6); higher = more stable. The settings on record: c terminus: a fixed tail appended.
With FYRLYQDLETHRCPCTSRCPRPCR [L13C], the protein stability index was 1.85.
As for FYRLYQDLETHREPCTSRCPRPCR [L13E], the figure is 3.25.
Consider FYRLYQDLETHRTPCTSRCPRPCR [L13T], for which the protein stability index stood at 2.97.
As for FYRLYQDLETHRKPCTSRCPRPCR [L13K], the figure is 2.63.
As for FYRLYQDLETHRRPCTSRCPRPCR [L13R], the figure is 3.39.
Regarding FYRLYQDLETHRDPCTSRCPRPCR [L13D], the protein stability index came out at 2.19.
Take FYRLGQDLETHRLPCTSRCPRPCR [Y5G]: the protein stability index was 3.16.
As for FYRLPQDLETHRLPCTSRCPRPCR [Y5P], the figure is 3.49; as for FYRLTQDLETHRLPCTSRCPRPCR [Y5T], 2.8.
As for FYRLNQDLETHRLPCTSRCPRPCR [Y5N], the protein stability index worked out at 3.29.
Regarding FYRLEQDLETHRLPCTSRCPRPCR [Y5E], the protein stability index came out at 3.17.
As for FYRLSQDLETHRLPCTSRCPRPCR [Y5S], the figure is 2.57.
As for FYRLVQDLETHRLPCTSRCPRPCR [Y5V], the figure is 1.88; as for FYRLMQDLETHRLPCTSRCPRPCR [Y5M], 2.29.
As for FYRLYQDLETHRLPPTSRCPRPCR [C15P], the figure is 1.85; as for FYRLYQDLETHRLPFTSRCPRPCR [C15F], 2.71; as for FYRLYQDLETHRLPRTSRCPRPCR [C15R], 2.3.
Regarding FYRLYQDLETHRLPYTSRCPRPCR [C15Y], the protein stability index was determined as 1.8.
As for FYREYQDLETHRLPCTSRCPRPCR [L4E], the figure is 4.13; as for FYRFYQDLETHRLPCTSRCPRPCR [L4F], 2.04.
As for FYRMYQDLETHRLPCTSRCPRPCR [L4M], the figure is 2.34; as for FYRIYQDLETHRLPCTSRCPRPCR [L4I], 2.41.
As for FYRRYQDLETHRLPCTSRCPRPCR [L4R], the figure is 2.49; as for FYRTYQDLETHRLPCTSRCPRPCR [L4T], 2.79.
Consider FYRSYQDLETHRLPCTSRCPRPCR [L4S], for which the protein stability index was determined as 3.46.
As for FYRLYQDLETNRLPCTSRCPRPCR [H11N], the figure is 1.93; as for FYRLYQDLETMRLPCTSRCPRPCR [H11M], 1.74.
In the case of FYRLYQDLETYRLPCTSRCPRPCR [H11Y], the protein stability index was 1.97.
As for FYRLYQDLETCRLPCTSRCPRPCR [H11C], the figure is 2.62.
As for FYRLYQDLETTRLPCTSRCPRPCR [H11T], the figure is 2.79; as for FYRLYQDLETQRLPCTSRCPRPCR [H11Q], 2.37; as for FYRLYQDLETFRLPCTSRCPRPCR [H11F], 1.64.
As for FYRLYQDLETKRLPCTSRCPRPCR [H11K], the figure is 1.96; as for FYRLYQDLETARLPCTSRCPRPCR [H11A], 2.31; as for FYRLYQDLETPRLPCTSRCPRPCR [H11P], 2.
For QYRLYQDLETHRLPCTSRCPRPCR [F1Q], the protein stability index turned out to be 2.71.
As for KYRLYQDLETHRLPCTSRCPRPCR [F1K], the figure is 3.37; as for CYRLYQDLETHRLPCTSRCPRPCR [F1C], 2.22.
As for AYRLYQDLETHRLPCTSRCPRPCR [F1A], the figure is 2.87.
For HYRLYQDLETHRLPCTSRCPRPCR [F1H], the protein stability index stood at 3.06.
With VYRLYQDLETHRLPCTSRCPRPCR [F1V], the protein stability index amounted to 2.13.
As for IYRLYQDLETHRLPCTSRCPRPCR [F1I], the figure is 2.12; as for FYRLYQDLETHLLPCTSRCPRPCR [R12L], 2.05; as for FYRLYQDLETHALPCTSRCPRPCR [R12A], 3.03.
FYRLYQDLETHILPCTSRCPRPCR [R12I]: the protein stability index is 1.42.
FYRLYQDLETHDLPCTSRCPRPCR [R12D]: the protein stability index stood at 2.4.
As for FYRLYQDLETHYLPCTSRCPRPCR [R12Y], the figure is 1.78; as for FYRLYQDLETHPLPCTSRCPRPCR [R12P], 2.64; as for FYRLYQDLETHKLPCTSRCPRPCR [R12K], 2.37.
As for FYRLYQDLETHQLPCTSRCPRPCR [R12Q], the figure is 2.47; as for FYRLYQDLETHRLPCTARCPRPCR [S17A], 2.46; as for FYRLYQDLETHRLPCTERCPRPCR [S17E], 2.43.
For FYRLYQDLETHRLPCTNRCPRPCR [S17N], the protein stability index is 2.15.
As for FYRLYQDLETHRLPCTTRCPRPCR [S17T], the figure is 2.61.
As for FYRLYQDLETHRLPCTHRCPRPCR [S17H], the figure is 2.33; as for FYRLYQDLETHRLPCTRRCPRPCR [S17R], 2.56.
As for FYRLYQDLETHRLPCTMRCPRPCR [S17M], the figure is 1.86.
FYRLYQDLETHRLPCTIRCPRPCR [S17I]: the protein stability index was 1.85.
For the variant FYRLYQDLETHRLPCTSGCPRPCR [R18G], the protein stability index was 2.54.
As for FYRLYQDLETHRLPCTSHCPRPCR [R18H], the figure is 1.91.
Consider FYRLYQDLETHRLPCTSTCPRPCR [R18T], for which the protein stability index was found to be 2.15.
As for FYRLYQDLETHRLPCTSNCPRPCR [R18N], the figure is 2.18; as for FYRLYQDLETHRLPCTSDCPRPCR [R18D], 1.78; as for FYRLYQDLETHRLPCTSVCPRPCR [R18V], 1.4.
As for FYRLYQDLETHRLPCTSPCPRPCR [R18P], the figure is 1.74.
As for FYRLYQDLETHRLPCTSLCPRPCR [R18L], the figure is 1.86; as for FYRLYQDLETHRLACTSRCPRPCR [P14A], 2.01.
For FYRLYQDLETHRLICTSRCPRPCR [P14I], the protein stability index amounted to 1.53.
As for FYRLYQDLETHRLMCTSRCPRPCR [P14M], the figure is 1.6; as for FYRLYQDLETHRLFCTSRCPRPCR [P14F], 1.79; as for FYRLYQDLETHRLGCTSRCPRPCR [P14G], 2.3.
As for FYRLYQDLETHRLCCTSRCPRPCR [P14C], the protein stability index came to 1.44.
As for FYRLYQDLETHRLYCTSRCPRPCR [P14Y], the figure is 1.45; as for FYRLYQDLETHRLVCTSRCPRPCR [P14V], 1.47; as for FYRLYQDLETHRLLCTSRCPRPCR [P14L], 3.27.
As for FYRLYQDLETHRLPCTSRCPSPCR [R21S], the figure is 1.88; as for FYRLYQDLETHRLPCTSRCPEPCR [R21E], 2.22; as for FYRLYQDLETHRLPCTSRCPGPCR [R21G], 2.71.
As for FYRLYQDLETHRLPCTSRCPHPCR [R21H], the figure is 3.38; as for FYRLYQDLETHRLPCTSRCPQPCR [R21Q], 3.16.
On to FYCLYQDLETHRLPCTSRCPRPCR [R3C], for which the protein stability index worked out at 1.98.
As for FYVLYQDLETHRLPCTSRCPRPCR [R3V], the figure is 2.04.
As for FYQLYQDLETHRLPCTSRCPRPCR [R3Q], the figure is 2.71.
FYNLYQDLETHRLPCTSRCPRPCR [R3N]: the protein stability index stood at 2.22.
As for FYGLYQDLETHRLPCTSRCPRPCR [R3G], the protein stability index was found to be 2.65.
As for FYTLYQDLETHRLPCTSRCPRPCR [R3T], the figure is 2.65.
FYELYQDLETHRLPCTSRCPRPCR [R3E]: the protein stability index came out at 2.63.
As for FYALYQDLETHRLPCTSRCPRPCR [R3A], the figure is 2.32; as for FYRLYQDLETHRLPCTSRCIRPCR [P20I], 2.22; as for FYRLYQDLETHRLPCTSRCLRPCR [P20L], 2.27.
As for FYRLYQDLETHRLPCTSRCNRPCR [P20N], the figure is 2.13; as for FYRLYQDLETHRLPCTSRCERPCR [P20E], 1.32.
As for FYRLYQDLETHRLPCTSRCHRPCR [P20H], the figure is 2.18; as for FYRLYQDLETHRLPCTSRCGRPCR [P20G], 1.95.

These data come from the supplement of paper PMC10567573.
